Where a chain is given by its changes, count along the chain named.

From US20250243286A1 (SIXPEAKS BIO, published 2025) come the findings set out here.

First the molecules themselves.
B1: Soidawürstle Fab (Fab, V domains shown)
VH: QVQLVQSGAEVRKPGSSVKVSCKASGYTFTSSYINWVRQAPGQGLEWMGTINPVSGSTSYAQKFQGRVTITADTSTSTAYMELSSLRSEDTAVYYCARGGWFDYWGQGTLVTVSS
VL: QSALTQPRSVSGSPGQSVTISCTGTSSDVGSYNRVNWYQQHPGKAPKLMIYGVSKRESGVPDRFSGSKSGNTASLTISGLQAEDEADYYCGTFAGGRYYGVFGGGTKLTVL
notes: Fab; also called Soidawüsrstel (Fab)
B2: Schwardamaga Fab (Fab, V domains shown)
VH: B1 VH with R12K, P53A
VL: B1 VL with Y32A, R34Y, L48P, K55R, E57P, R97K
notes: Fab
B3: Antibody Riaba (antibody, V domains shown)
VH: B1 VH with R12K, S16A, P53A, I70M, A72R, T76I, S85R, E89D
VL: B1 VL with R8A, V18I, R34Y, E57D, P61S, D62N, R97K
notes: full-length IgG
B4: Antibody Hefaknöpfla (antibody, V domains shown)
VH: B1 VH with R12K, S16A, P53A, I70M, A72R, T76I, S85R, E89D
VL: B1 VL with R8A, V18I, Y32K, R34Y, P61S, D62N, R97K
notes: full-length IgG
B5: Antibody Duuranad (antibody, V domains shown)
VH: B1 VH with R12K, S16A, P53A, I70M, A72R, T76I, S85R, E89D
VL: B1 VL with R8A, V18I, Y32F, R34Y, Y51R, P61S, D62N, R97A
notes: full-length IgG
B6: Antibody Wurschdsalat (antibody, V domains shown)
VH: B1 VH with R12K, S16A, P53A, I70M, A72R, T74E, T76I, S85R, E89D
VL: B1 VL with R8A, V18I, R34Y, P61S, D62N, R97K
notes: full-length IgG
B7: Duuranad Fab (Fab, V domains shown)
VH: B1 VH with R12K, S16A, P53A, I70M, A72R, T76I, S85R, E89D
VL: B1 VL with R8A, V18I, Y32F, R34Y, Y51R, P61S, D62N, R97A
notes: Fab
B8: Hefaknöpfla Fab (Fab, V domains shown)
VH: B1 VH with R12K, S16A, P53A, I70M, A72R, T76I, S85R, E89D
VL: B1 VL with R8A, V18I, Y32K, R34Y, P61S, D62N, R97K
notes: Fab
B9: Wurschdsalat Fab (Fab, V domains shown)
VH: B1 VH with R12K, S16A, P53A, I70M, A72R, T74E, T76I, S85R, E89D
VL: B1 VL with R8A, V18I, R34Y, P61S, D62N, R97K
notes: Fab
B10: Bimagrumab Fab (Fab, V domains shown)
VH: B1 VH with R12K, S16A, I70M, A72R, T76I, S85R, E89D
VL: B1 VL with R8A, V18I, R34Y, E57P, P61S, D62N, R97S
notes: Fab
B11: Riaba Fab (Fab, V domains shown)
VH: B1 VH with R12K, S16A, P53A, I70M, A72R, T76I, S85R, E89D
VL: B1 VL with R8A, V18I, R34Y, E57D, P61S, D62N, R97K
notes: Fab

T3 sequence (P27037 20-135 limits assumed): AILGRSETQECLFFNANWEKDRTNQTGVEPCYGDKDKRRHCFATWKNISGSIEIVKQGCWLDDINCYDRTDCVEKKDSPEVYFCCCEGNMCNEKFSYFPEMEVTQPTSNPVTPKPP

The target in the first experiment is T1, human ActRIIB (human, UniProt Q13705 19-137, limits assumed).
T1 construct: antigen in MSD-SET; also called ACVR2B; ActR2B
T1 sequence: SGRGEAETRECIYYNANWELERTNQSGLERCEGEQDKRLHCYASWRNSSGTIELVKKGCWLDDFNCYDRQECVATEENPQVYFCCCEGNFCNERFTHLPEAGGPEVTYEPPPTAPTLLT
In words: MSD-SET.
As usually defined, the Kd is a measure of binding affinity in units of concentration. For B1, binding was characterised by a dissociation constant (Kd) of 0.0026 nM. In other words, the picomolar range.
B2 displayed a Kd of 0.0138 nM.

The target in another experiment is T2, ActRIIA and ActRIIB (on TGFB/SMAD SBE Reporter HEK293 cells) (human). In words: cell-based or functional assay.
As to B3, the IC50, Activin SMAD RGA was 0.134 nM; the IC50, Myostatin SMAD RGA is 0.263 nM; the IC90, Activin SMAD RGA came out at 2.14 nM; the IC90, Myostatin SMAD RGA is 2.18 nM.
B4 registered an IC50, Activin SMAD RGA of 0.139 nM; an IC50, Myostatin SMAD RGA of 0.211 nM; an IC90, Activin SMAD RGA of 2.16 nM; an IC90, Myostatin SMAD RGA of 5.37 nM.
On the same counts, the results for B5 are 0.272 nM, 0.432 nM, 2.22 nM and 4.45 nM.
B6 had an IC50, Activin SMAD RGA of 0.266 nM; an IC50, Myostatin SMAD RGA of 0.4 nM; an IC90, Activin SMAD RGA of 1.9 nM; an IC90, Myostatin SMAD RGA of 3.89 nM.

The target of a further experiment is T2, ActRIIA and ActRIIB (on TGFB/SMAD SBE …).
Assay: not given
Molecule B4 came in with an IC50 (read off the curve); Myostatin-stimulated SMAD reporter gene assay of 0.3 nM.

The next experiment addresses T1, human ActRIIB. In words: MSD-SET; human ActRIIB; full-length IgG (Table 4B).
Consider B3, for which the affinity, expressed as Kd, was 0.004 nM.
Still for that read-out and setting: for B4 the value was 0.005 nM; for B5, 0.005 nM.
The molecule B6 gave a Kd of 0.006 nM.

The next experiment concerns the target T3, human ActRIIA (human, UniProt P27037 20-135, limits assumed).
T3 construct: antigen in MSD-SET; also called ACVR2A; ActR2A
As to the kind of experiment: MSD-SET.
B3: the “Fold Difference to bimagrumab” value turned out to be 10 fold and the Kd was 0.014 nM.
B4 had a Kd of 0.015 nM.

A further experiment addresses T3, human ActRIIA. In words: MSD-SET. This is another data set of the same source.
With B3, the Kd was determined as 0.014 nM.
On the same count and under the same terms, for B7 the value was 0.047 nM; for B4, 0.015 nM; for B5, 0.009 nM.
On to B8, for which binding was characterised by a dissociation constant (Kd) of 0.091 nM. This Kd is about 10-fold higher than that of the molecule before.
On to B9, for which binding was put at a Kd of 0.125 nM. The Kd values of the last two molecules are within 1.5-fold of each other.
For the molecule B6, binding was characterised by a dissociation constant (Kd) of 0.005 nM.

For the next experiment, the target named is T3, human ActRIIA. As to the kind of experiment: MSD-SET. The source holds these as a separate data set.
B4 showed a Kd of 0.0123 nM. This lies in the picomolar range.
B5 had a Kd of 0.0212 nM.
As to B6, binding was characterised by a dissociation constant (Kd) of 0.0218 nM.

In another experiment the target is mouse ActRIIA (mouse, UniProt P27038 20-135, limits assumed). In words: MSD-SET.
mouse ActRIIA, sequence (P27038 20-135 limits assumed): as the sequence (P27037 20-135 limits assumed) above, with K20R, V73I counted along it
Take B1: the Kd came out at 0.04 nM.
Regarding B2, binding was put at a Kd of 0.039 nM.
In the case of B10, binding was characterised by a dissociation constant (Kd) of 0.239 nM.

The next experiment concerns the target T1, human ActRIIB. As to the kind of experiment: MSD-SET. The source holds these as a separate data set.
Turning to B1, the Kd is 0.011 nM. That is a picomolar value.
As for B2, the Kd was determined as 0.01 nM.

The target in the next experiment is Dog ActRIIA (dog, UniProt A0A8I3MYH0 20-135). In words: MSD-SET.
B1 displayed a Kd of 0.028 nM. That is a picomolar value.
The molecule B2 gave a Kd of 0.044 nM.
B10 showed a Kd of 0.354 nM. This Kd lies about 8-fold higher than the previous one.

For another experiment, the target named is Pig ActRIIA (pig, UniProt F1S0H6 20-135). As to the kind of experiment: MSD-SET.
Molecule B1 had a Kd of 0.022 nM.
In the case of B2, binding was put at a Kd of 0.029 nM.
Molecule B10 gave a Kd of 0.188 nM.

For another experiment, the target named is T2, ActRIIA and ActRIIB (on TGFB/SMAD SBE …). As to the kind of experiment: cell-based or functional assay. The source holds these as a separate data set.
Consider B3, for which the IC50, Activin SMAD RGA was 0.14 nM and the IC50, Myostatin SMAD RGA was 0.33 nM.
Molecule B7 showed an IC50, Activin SMAD RGA of 6.19 nM; an IC50, Myostatin SMAD RGA of 7.85 nM; an IC50 fold difference (Fab:IgG), Activin SMAD RGA of 20.5 fold; an IC50 fold difference (Fab:IgG), Myostatin SMAD RGA of 20.2 fold.
The molecule B4 had an IC50, Activin SMAD RGA of 0.13 nM and an IC50, Myostatin SMAD RGA of 0.26 nM.
On the same counts, the results for B5 are 0.3 nM and 0.39 nM.
In turn, B8 gave an IC50, Activin SMAD RGA of 4.06 nM; an IC50, Myostatin SMAD RGA of 3.7 nM; an IC50 fold difference (Fab:IgG), Activin SMAD RGA of 31.5 fold; an IC50 fold difference (Fab:IgG), Myostatin SMAD RGA of 14.2 fold.
As for B11, the IC50, Activin SMAD RGA amounted to 27.9 nM; the IC50, Myostatin SMAD RGA came to 64.6 nM; the IC50 fold difference (Fab:IgG), Activin SMAD RGA turned out to be 196 fold; the IC50 fold difference (Fab:IgG), Myostatin SMAD RGA was determined as 199 fold.
As for B9, the IC50, Activin SMAD RGA was 9.9 nM; the IC50, Myostatin SMAD RGA was determined as 13.4 nM; the IC50 fold difference (Fab:IgG), Activin SMAD RGA was 33.8 fold; the IC50 fold difference (Fab:IgG), Myostatin SMAD RGA worked out at 40.7 fold.
As for B6, the IC50, Activin SMAD RGA was found to be 0.29 nM and the IC50, Myostatin SMAD RGA is 0.33 nM.
In the case of B10, the IC50, Activin SMAD RGA came out at 4.39 nM and the IC50, Myostatin SMAD RGA stood at 6.87 nM.

In another experiment the target is T1, human ActRIIB. In words: MSD-SET; Fab, not IgG.
The molecule B7 displayed an equilibrium dissociation constant (Kd) of 0.36 nM. In other words, the sub-nanomolar range.
B8 came in with a Kd of 0.228 nM.
Still for that read-out and setting: for B11 the value was 1.57 nM; for B9, 0.823 nM.

A further experiment addresses T3, human ActRIIA. In words: MSD-SET. This is another data set of the same source.
B3: the affinity, expressed as Kd, was 0.014 nM. This counts as picomolar.
Still for that read-out and setting: for B4 the value was 0.015 nM; for B5, 0.009 nM; for B6, 0.005 nM.

The target of the next experiment is T2, ActRIIA and ActRIIB (on TGFB/SMAD SBE …). As to the kind of experiment: cell-based or functional assay. This is another data set of the same source.
With B3, the IC50 [nM] (assay not given) turned out to be 0.0371 nM, the IC50 fold difference to bimagrumab (assay not given) turned out to be 7.96 fold, the IC90 [nM] (assay not given) was 1.6 nM and the IC90 fold difference to bimagrumab (assay not given) was determined as 4.11 fold.
As to B4, the IC50 [nM] (assay not given) came out at 0.011 nM, the IC50 fold difference to bimagrumab (assay not given) was 27 fold, the IC90 [nM] (assay not given) was determined as 1.6 nM and the IC90 fold difference to bimagrumab (assay not given) was 4.11 fold.

In another experiment the target is T1, human ActRIIB. In words: MSD-SET, Fab KD over IgG KD.
With B11, the “Fold difference (Fab:IgG)” value came to 369 fold.

In another experiment the target is T1, human ActRIIB. As to the kind of experiment: MSD-SET; human ActRIIB; full antibody, separate cross-reactivity study (Table 6A).
In turn, B4 showed a Kd of 0.0043 nM.
In the case of B5, the Kd stood at 0.0054 nM.
For B6, binding was put at a Kd of 0.0044 nM.

The next experiment addresses T2, ActRIIA and ActRIIB (on TGFB/SMAD SBE …).
Assay: not given
This is another data set of the same source.
B4 showed an IC50 (read off the curve); Activin-stimulated SMAD reporter gene assay of 0.2 nM.

Another experiment addresses T1, human ActRIIB. As to the kind of experiment: MSD-SET, preliminary.
The molecule B1 showed a Kd of 0.0197 nM.
Take B2: the affinity, expressed as Kd, was 0.0726 nM.
